According to paper PMC4794571:

How the values were obtained:
[1] = target: Cy3-IgE (direct labeling) (UniProt P01854); experiment: microarray fluorescence; details: direct label, PBSMTB for IgE microarrays (full recipe not in material; PBS-based wash: 8.1 mM Na2HPO4, 137 mM NaCl, 1 mM MgCl2, pH 7.4), temperature not stated, thrombin …
[2] = target: biotin-IgE (indirect labeling) (UniProt P01854); experiment: microarray fluorescence; details: indirect label, PBSMTB for IgE microarrays (full recipe not in material; PBS-based wash: 8.1 mM Na2HPO4, 137 mM NaCl, 1 mM MgCl2, pH 7.4), temperature not stated, thrombin …
[3] = target: IgE (cited assays) (human) (UniProt P01854); experiment: filter binding; details: PBSMTB for IgE microarrays (full recipe not in material; PBS-based wash: 8.1 mM Na2HPO4, 137 mM NaCl, 1 mM MgCl2, pH 7.4), temperature not stated, thrombin …, cited from earlier work
[4] = target: IgE (cited assays) (human) (UniProt P01854); experiment: SPR; details: PBSMTB for IgE microarrays (full recipe not in material; PBS-based wash: 8.1 mM Na2HPO4, 137 mM NaCl, 1 mM MgCl2, pH 7.4), temperature not stated, thrombin …, cited from earlier work
[5] = target: IgE (cited assays) (human) (UniProt P01854); experiment: fluorescence anisotropy; details: not immobilized; PBSMTB for IgE microarrays (full recipe not in material; PBS-based wash: 8.1 mM Na2HPO4, 137 mM NaCl, 1 mM MgCl2, pH 7.4); temperature not stated; thrombin …; cited from earlier work
[6] = T linker, T linker to array surface
[7] = A linker, A linker to array surface
[8] = C linker, C linker to array surface
[9] = G linker, G linker to array surface

Sequence “AGGGCACGTTTATCCGTCCCTCCTAGTGGCGTGCCCT [IgE_D17-4_DM1_37]” has a Kd [1, 6] of 0.0823 µM and a Kd [2, 6] of 0.0299 µM.

“CACGTTTATCCGTCCCTCCTAGTGGCGTG [IgE_17-1 (IgE_D17-1)]” showed a Kd [2, 6] of 0.0734 µM.

For “CACGTTTATCCGTCCCTCCTAGTGGCGTG [IgE_17-1, cited assay]”, the Kd ([3]; solution) is listed as 0.082 µM.

In the case of “GGGGCACGTTTATCCGTCCCTCCTAGTGGCGTGCCCC [IgE_17-4 (IgE_D17-4), T linker]”, the Kd ([1]; D/P 2.4, T linker 10-15, T linker to array surface) is reported as 0.0663 µM and the Kd [2, 6] is reported as 0.0295 µM.

“GGGGCACGTTTATCCGTCCCTCCTAGTGGCGTGCCCC [IgE_17-4, A linker]” showed a Kd [1, 7] of 0.0637 µM and a Kd [2, 7] of 0.0309 µM.

“GGGGCACGTTTATCCGTCCCTCCTAGTGGCGTGCCCC [IgE_17-4, C linker]” gave a Kd [1, 8] of 0.0618 µM and a Kd [2, 8] of 0.0308 µM.

Sequence “GGGGCACGTTTATCCGTCCCTCCTAGTGGCGTGCCCC [IgE_17-4, G linker]” has a Kd [1, 9] of 0.0865 µM and a Kd [2, 9] of 0.0295 µM.

For “GGGGCACGTTTATCCGTCCCTCCTAGTGGCGTGCCCC [IgE_17-4, cited assays]”, the Kd ([4]; aptamer immobilized on surface) is listed as 0.0748 µM, the Kd ([4]; aptamer not immobilized) is listed as 0.0047 µM and the Kd ([3]; not immobilized) is listed as 0.009 µM. The Kd [5] was 0.015 µM.

Sequence “TGGGCACGTTTATCCGTCCCTCCTAGTGGCGTGCCCC [IgE_D17-4_SM1]” has a Kd [1, 6] of 0.0799 µM and a Kd [2, 6] of 0.0288 µM.
